Measurements: doi:10.1101/2022.10.18.22281172

Assays:
[1] = target: cynomolgus macaque FcRn (cynomolgus macaque) (UniProt Q8SPV9); assay: SPR
[2] = target: human neonatal Fc receptor (human) (UniProt P55899); assay: SPR
Sequence of UniProt P55899 (P55899 24-365): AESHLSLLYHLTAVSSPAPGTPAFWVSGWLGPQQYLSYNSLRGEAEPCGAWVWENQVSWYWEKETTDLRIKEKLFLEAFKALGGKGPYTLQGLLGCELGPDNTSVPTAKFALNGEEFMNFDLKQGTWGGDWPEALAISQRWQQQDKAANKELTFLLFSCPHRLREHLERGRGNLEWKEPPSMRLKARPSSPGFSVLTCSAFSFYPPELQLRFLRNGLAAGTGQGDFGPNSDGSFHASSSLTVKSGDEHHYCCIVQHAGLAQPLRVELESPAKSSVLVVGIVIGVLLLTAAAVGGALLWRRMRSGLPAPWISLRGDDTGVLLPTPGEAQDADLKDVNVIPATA

Sequence of UniProt Q8SPV9 (Q8SPV9 24-365): as the sequence (P55899 24-365) above, with N39D, E44Q, G99S, S189G, S190N, L217M, S269T, V319S, L332S, V335I counted along it

adintrevimab (antibody)
fold higher affinity relative to ADG2 [1]: 5 fold
fold higher affinity relative to ADG2 [2]: 6 fold
